Source: the nanobody polyreactivity screen of Harvey et al. (2022)

Test: yeast display, Sf9 membrane polyspecificity reagent, FACS + sequencing; frameworks hold sequencing errors
Procedure, shortened: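 Nanobodies from a synthetic yeast display library (Saccharomyces cerevisiae BJ5465), induced 36–48 hours with galactose, were stained 1 hour at 4 °C with 10% biotinylated, detergent-solubilized Sf9 membrane reagent, enriched on streptavidin microbeads, then FACS-sorted. Anti-HA (expression) and streptavidin (reagent binding) fluorescence set low and high (top ~1%) gates. Polyreactivity labels come from the gate of origin. Genes were colony-PCR amplified, MiSeq 2 × 250 sequenced and filtered by CDR length.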

Sequence | polyreactivity (PSR sort gate)
QVQLVESGGGLVQAGGSLRLSCAASGGTFAWYAMGWYRQAPGKERELVAAITSDGNTDYADSVKGRFTISRDNAKNTVYLQMNSLKPEDTAVYYCAADVQWRSAYDYTMGYWGQGTQVTVSS | low polyreactivity
QVQLVESGGGLVQAGGSLRLSCAASGGTFDSNAMGWYRQAPGKERELVAAISSGGSTYYADSVKGRFTISRDNAKNTVYLQMNSLKPEDTAVYYCAADSSGGASAPMDYWGQGTQVTVSS | low polyreactivity
QVQLVESGGGLVQAGGSLRLSCAASGGTFDSYVMGWYRQAPGKERELVAAITWSGGSTYYAESVKGRFTISRDNAKNTVYLQMNSLKPEDTAVYYCNNGGSTTYAYDYWGQGTQVTVSS | low polyreactivity
QVQLVESGGGLVQAGGSLRLSCAASGGTFDTYAMGWYRQAPGKERELVAGIDWSGGSTYYADSVKGRFTISRDNAKNTVYLQMNSLKPEDTAVYYCAADYYYPSQMDYWGQGTQVTVSS | low polyreactivity
QVQLVESGGGLVQAGGSLRLSCAASGGTFDTYAMGWYRQAPGKERELVAGIDWSGGSTYYADSVKGRFTISRDYAKNTVYLQMNSLKPEDTAVYYCAADFYYPSQMDYWGQGTQVTVSS | low polyreactivity
QVQLVESGGGLVQAGGSLRLSCAASGGTFDVYTMGWYRQAPGKERELVAVISSSGGGTYYADSVKGRFTISRDNAKNTVYLQMNSLKPEDTAVYYCAARRKRQNTYYPYYYWGQGTQVTVSS | high polyreactivity
QVQLVESGGGLVQAGGSLRLSCAASGGTFDWNTMGWYRQAPGKERELVASITSGGRTNYADSVKGRFTISRDNAKNTVYLQMNSLKPEDTAVYYCAKYRRSAYPWQTWVGQKFDYWGQGTQVTVSS | low polyreactivity
QVQLVESGGGLVQAGGSLRLSCAASGGTFERNAMGWYRQAPGKERELVAAITGSGGRTYYADSVKGRFTISRDNAKNTVYLHMNSLKPEDTAVYYCAAVPWWKYNYWGQGTQVTVSS | high polyreactivity
QVQLVESGGGLVQAGGSLRLSCAASGGTFFENAMGWDRQAPGKERELVAAISSSGASTYYADSVKGRFTISRDNAKNTVYLQMNSLKPEDTAVYYCNAGQRVRSTLYDYWGQGTQVTVSS | high polyreactivity
QVQLVESGGGLVQAGGSLRLSCAASGGTFFGYAMGWYRPAPGKERELVAAISGSGGRTYYADSVKGRFTISRDNAKNTVYLQMNSLKPEDTAVYYCAADATHETYYPFYYWGQGTQVTVSS | high polyreactivity
QVQLVESGGGLVQAGGSLRLSCAASGGTFFSYTKGWYRQAPGKERELVAAITWSGASTYYADSVKGRFTISRDNAKNTVYIQMNSLKPEDTAVYYCAADSYDSPGYLTTSTYRLDYWGQGTHVTVSS | low polyreactivity
QVQLVESGGGLVQAGGSLRLSCAASGGTFFYNAMGWYRQAPGKERELVAAINGGTSTNYADSVKGRFTISRDNAKNTVYLQMNSLKPEDTAVYYCAAVYRRLGRYDWYDYWGQGTQVTVSS | low polyreactivity
QVQLVESGGGLVQAGGSLRLSCAASGGTFGSYAMGWYRQAPGKERELVAAIRSGDRTYYADSVKGRFTISRDNAKNTVYLQMNSLKPEDTAVYYCNADGYARFRTYYSRDTREYDYWGQGTQVTVSS | low polyreactivity
QVQLVESGGGLVQAGGSLRLSCAASGGTFGSYAMGWYRQAPGKERELVAAITGSGGRTYYADSVKGRFTISRDNAKNTVYLQMNSLKPEDTAVYYCNATRGIGPPFYYWGQGTKVTVSS | high polyreactivity
QVQLVESGGGLVQAGGSLRLSCAASGGTFGTNAMGWYRQAPGKERELVATIRTSVGSTYYADSVKGRFTISRDNAKNTVYLQMNSVKPEDTAVYYCAAGVPKNGQAGYDYWGQGTQVTVSS | high polyreactivity
QVQLVESGGGLVQAGGSLRLSCAASGGTFGVNAMGWYRQAPGKERELVAAISSSGGRTYYADSVKGRFTISRDNAKNTVFLQMNSLKPEDTAVYYCAARNYFWGQGTQVTVSS | low polyreactivity
QVQLVESGGGLVQAGGSLRLSCAASGGTFGYNAMGWYRQAPGKERELVAAITGGGRTYYADSVKGRFTISRDNAKNTVYLQMNSLKPEDTAVYYCNADYAYYSYDYWGQGTQVTVSS | low polyreactivity
QVQLVESGGGLVQAGGSLRLSCAASGGTFGYYAMGWYRQAPGKDRELVAGINYSGGRTYYADSVKGRFTISRDNAKNTVYLQMNSLKPEDTAVYYCAAQAYVGYRGYDYWGQGTQVTVSS | high polyreactivity
QVQLVESGGGLVQAGGSLRLSCAASGGTFHYYAMGWYRQAPGKERELVAAISWSGGSTYYADSVKGRFTISRDNAKNTVYLQMNSLKPEDTAVYYCAAETYPYLFHTYDYWGQGTQVTVSS | low polyreactivity
QVQLVESGGGLVQAGGSLRLSCAASGGTFINYAMGWYRQAPGKERELVAGISQSGDSTYYADSVKGRFTISRDNAKNTVYLQMNSLKPEDTAVYYCNADAVAQQYDWWENYDYWGQGTQVTVSS | high polyreactivity
QVQLVESGGGLVQAGGSLRLSCAASGGTFIRYAMALYRQAPGKERELVADITSSGDSTYYADSVKGRFTISRDNAKNTVYLPMNSLITEDTAVYYCATTHDYWLWGMGYWGQGTQVTVSS | high polyreactivity

Sequence | polyreactivity (PSR sort gate)
QVQLVESGGGLVQAGGSLRLSCAASGGTFKTYVMGWSRQEPGKERELVAVISGSGASTYYADSVKGRFTISRDNAKNTVYLQMNSLKPEDTAVYYCAARYAWGWSGYYYWGQGTQVTVSS | high polyreactivity
QVQLVESGGGLVQAGGSLRLSCAASGGTFKYYAMGWYRQAPGKERELVADITSGGSTNYADYVKGRFTISRDNAKNTVYLQMNSLKPEDTAVYYCAKRRYWVKYDYWGQGTQVTVSS | high polyreactivity
QVQLVESGGGLVQAGGSLRLSCAASGGTFLNYAMGWYRQAPGKECELVAVITNGDSTYYADSVKGRFTISRDNAKNTVYLQMNSLKPEDTAVYYCNADDWGQYNIWYDYWGQGTQVTVSS | low polyreactivity
QVQLVESGGGLVQAGGSLRLSCAASGGTFLRNAMGWYRQAPGKERELVAAISARGGSTRYADSVKGRFTISRDNAKNTVYLQMNSLKPEDTAVYYCDATSSHHRRMEYWGQGTQVTVSS | high polyreactivity
QVQLVESGGGLVQAGGSLRLSCAASGGTFLYNAMGWYRQAPGKERELVAAISRSGGRTDYADSVKGRFTISRDNAKNTVYLQMNSLKPEDTAVYYCATPGTYYTHRYRYDYWGHGTQVTVSS | high polyreactivity
QVQLVESGGGLVQAGGSLRLSCAASGGTFNTYAMGWYRPAPGKERELVAAITSSGGSTFYADSVKWRFTISRDNAKNTVYLQMNSLKPEDTAVYYCAAKSYWTIVYRHPGYYYWGQGTQVTVSS | low polyreactivity
QVQLVESGGGLVQAGGSLRLSCAASGGTFPGYTMGWYRQAPGKERELVAAISRGGRTYYADSVKGRFTISRDNAKNTVYLQMNSLKPEDTAVYYCNAVTKYGNFDYWGQGTQVTVSS | high polyreactivity
QVQLVESGGGLVQAGGSLRLSCAASGGTFPWYSMGWYRPATGKEREMVAGITWGGVSTYADSVKGRFTISRDNAKNTVYLQMNSLKQEDTAVYYCASRTSFTRGPWYKFYYWGQGTQVTVSS | high polyreactivity
QVQLVESGGGLVQAGGSLRLSCAASGGTFQAYAMGWYRQAPGKERELVAAISRSGGRTYYADSVKGRFTISRDNAKNTVYLQMNSLKPEDTAVYYCNAGAYYRNEMDYWGQGTQVTVSS | high polyreactivity
QVQLVESGGGLVQAGGSLRLSCAASGGTFQINAMGWYRQAPGKERELVAAISRSGGSTSYADSVKGRFTISRDNAKNTVYLQMNSLKPEDTAVYYCNKRVRATAWYDYWGQGTQVTVSS | high polyreactivity
QVQLVESGGGLVQAGGSLRLSCAASGGTFQPNAMGWYRQAPGKERELVAAISWSDGSTYYADSVKGRFTISRDNAKNTVYLQMNSLKPEDTAVYYCAADFTYYDSPYRDYNYESWGQGTQVTVSS | low polyreactivity
QVQLVESGGGLVQAGGSLRLSCAASGGTFRAYVMGWYRQAPGKERELVAAISRSGTRTYYADSVKGRFTISRDNAKNTVYLQMNSLKPEDTAVYYCAAAAKSWLFDYWGQGTQVTVSS | high polyreactivity
QVQLVESGGGLVQAGGSLRLSCAASGGTFRLYAMGWYRQAPGKERELVAAITGSSGGTYYADSVKGRFTISRDNAKNTVYLQMNSLKPEDTAVYYCAARSSYWGQGTQVTVSS | low polyreactivity
QVQLVESGGGLVQAGGSLRLSCAASGGTFRPYAMGWYRQAPGKERELVATIRSSGGRTYYADSVKGRFTISRDNAKNTVYLQMISLKPEDTAVYSCAADRTRGYGNDYWGQGTQVTVSS | high polyreactivity
QVQLVESGGGLVQAGGSLRLSCAASGGTFRRYTMGWYRPAPGKERELVAVISRSGGSTYYADSVKGRFTISRDIAKNTVYLQMNSLKPEDTAVYYCAVVYYNGYDWGQGTQVTVSS | high polyreactivity
QVQLVESGGGLVQAGGSLRLSCAASGGTFRSNAMGWYRQAPGKERELVAASTNYADSVKGRFTISRDNAKNTVYLQMNSLKPEDTAVYYCAAGPTDSQSGMDYWGQGTQVTVSS | low polyreactivity
QVQLVESGGGLVQAGGSLRLSCAASGGTFRVYVMGWYRQAPGKERELVAAISRGGGSTYYADSVKGRFTISRDNAKNTVYLQMNSLKPEDTAVYYCAARVWRYPWRASEYDYWGQGTQVTVSS | high polyreactivity
QVQLVESGGGLVQAGGSLRLSCAASGGTFRYNAMGWYRQAPGKERELVAAISRSGGSTHYADSVKGRFTISRDNAKNTVYLQMNSLKPEDTAVYYCAATVTFVPSRAGFYKYNYWGQGTQVTVSS | high polyreactivity
QVQLVESGGGLVQAGGSLRLSCAASGGTFRYYAMGWYRQAPGKERELVAAITSGDTTNYADSVKGRFTISRDNAKNTVYLQMNSLKPEDTAVYYCAKELQVRQAGDYWGQGTQVTVSS | low polyreactivity
QVQLVESGGGLVQAGGSLRLSCAASGGTFSGYTMGWYRQAPGKEWELVAAITRSGSSTYYADSVKGRFTISRDNAKNTVYLQMNSLKPEDTAVYYGAATYGSGVYKYDYWGQGTQVTVSS | high polyreactivity
